Reference: doi:10.1101/2024.01.23.574818

Biological target: RmlT, wall teichoic acid rhamnosyltransferase of Listeria monocytogenes EGDe (Listeria monocytogenes EGDe)
Assay: SEC

**Q.** How did the stoichiometry N turn out when “RmlT, wall teichoic acid rhamnosyltransferase of Listeria monocytogenes EGDe (enzyme)” was run?
**A.** 2
